# Test results reported in US20250163182A1 (Janssen / Centocor, published 2025).
# T1: human ENPP3 on cells (human, UniProt O14638 1-875)
# T1 sequence (looked up): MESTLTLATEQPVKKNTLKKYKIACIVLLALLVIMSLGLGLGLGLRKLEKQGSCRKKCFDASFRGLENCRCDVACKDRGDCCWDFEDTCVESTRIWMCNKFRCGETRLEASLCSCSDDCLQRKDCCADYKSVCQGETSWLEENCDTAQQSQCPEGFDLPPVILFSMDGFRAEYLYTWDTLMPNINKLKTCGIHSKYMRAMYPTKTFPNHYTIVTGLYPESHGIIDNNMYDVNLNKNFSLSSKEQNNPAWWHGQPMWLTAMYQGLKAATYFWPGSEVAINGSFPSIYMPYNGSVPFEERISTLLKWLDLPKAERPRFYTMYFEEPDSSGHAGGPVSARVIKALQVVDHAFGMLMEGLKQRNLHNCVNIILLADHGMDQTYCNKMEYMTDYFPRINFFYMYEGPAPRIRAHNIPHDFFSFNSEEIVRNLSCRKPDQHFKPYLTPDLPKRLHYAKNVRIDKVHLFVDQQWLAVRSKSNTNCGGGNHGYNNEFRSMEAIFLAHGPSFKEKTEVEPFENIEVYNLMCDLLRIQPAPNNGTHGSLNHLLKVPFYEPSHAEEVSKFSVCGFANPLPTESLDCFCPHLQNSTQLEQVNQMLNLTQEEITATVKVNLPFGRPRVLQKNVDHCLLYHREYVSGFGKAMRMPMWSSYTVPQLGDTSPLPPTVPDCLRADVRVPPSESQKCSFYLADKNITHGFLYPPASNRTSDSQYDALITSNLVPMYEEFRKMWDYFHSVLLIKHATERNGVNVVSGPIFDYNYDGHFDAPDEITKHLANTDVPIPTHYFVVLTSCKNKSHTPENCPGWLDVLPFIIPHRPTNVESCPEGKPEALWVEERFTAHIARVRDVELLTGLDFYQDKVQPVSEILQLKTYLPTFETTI
# T2: cynomolgus monkey ENPP3 on HepG2-KO cyENPP3 OE cells (cynomolgus monkey, UniProt A0A2K5TKP4 1-874)
# T2 sequence: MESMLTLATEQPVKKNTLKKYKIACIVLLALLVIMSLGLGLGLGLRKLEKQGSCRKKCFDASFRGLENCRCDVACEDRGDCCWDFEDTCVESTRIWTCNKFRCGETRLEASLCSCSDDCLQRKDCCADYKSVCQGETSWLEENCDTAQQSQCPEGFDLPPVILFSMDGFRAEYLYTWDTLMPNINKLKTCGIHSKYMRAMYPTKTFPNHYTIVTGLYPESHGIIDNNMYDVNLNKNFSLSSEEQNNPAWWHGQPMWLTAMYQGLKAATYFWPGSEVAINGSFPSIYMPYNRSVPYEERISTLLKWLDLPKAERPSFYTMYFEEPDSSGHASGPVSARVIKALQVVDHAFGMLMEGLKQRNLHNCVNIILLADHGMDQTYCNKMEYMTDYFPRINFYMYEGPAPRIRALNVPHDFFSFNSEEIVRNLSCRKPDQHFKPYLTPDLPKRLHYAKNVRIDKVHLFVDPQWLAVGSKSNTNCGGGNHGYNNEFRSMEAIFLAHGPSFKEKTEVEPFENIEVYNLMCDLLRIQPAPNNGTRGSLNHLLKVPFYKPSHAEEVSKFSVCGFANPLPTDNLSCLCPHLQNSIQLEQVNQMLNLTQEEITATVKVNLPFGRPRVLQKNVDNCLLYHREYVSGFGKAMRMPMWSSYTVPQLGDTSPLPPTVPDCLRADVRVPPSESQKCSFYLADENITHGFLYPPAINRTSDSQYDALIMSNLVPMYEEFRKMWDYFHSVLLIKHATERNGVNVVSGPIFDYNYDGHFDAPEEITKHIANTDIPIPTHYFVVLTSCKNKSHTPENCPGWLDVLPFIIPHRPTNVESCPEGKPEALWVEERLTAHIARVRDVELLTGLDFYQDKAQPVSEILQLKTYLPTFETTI
# B1: NPP3B815 (bispecific antibody, human IgG1, kappa, L234A L235A)
# heavy 1: EIVLTQSPATLSASPGERVTLSCSASSSVSYMNWYQQKPGCAPRRWIYDSSKLASGVPARFSGSGSGRDYTLTISSLEPEDFAVYYCQQWSRNPPTFGGGTKVEIKGGGSGGSGGCPPCGGSGGQVQLVQSGAEVKKPGSSVKVSCKASGYTFTRSTMHWVKQAPGQGLEWIGYINPSSAYTNYNQKFQGRVTLTADKSTSTAYMELSSLRSEDTAVYYCASPQVHYDYAGFPYWGCGTLVTVSSEPKSSDKTHTCPPCPAPEAAGGPSVFLFPPKPKDTLMISRTPEVTCVVVSVSHEDPEVKFNWYVDGVEVHNAKTKPREEQYNSTYRVVSVLTVLHQDWLNGKEYKCKVSNKALPAPIEKTISKAKGQPREPQVYTLPPSREEMTKNQVSLWCLVKGFYPSDIAVEWESNGQPENNYKTTPPVLDSDGSFFLYSKLTVDKSRWQQGNVFSCSVMHEALHNHYTQKSLSLSPGK
# heavy 2: EVQLVESGGGRVKPGGSLRLSCAASGFTFSDYSMNWVRQAPGKGLEWVSSISSISSYVKYADSVKGRFTMSRDNAKNSLFLQMNSLRDEDMAVYYCARGHYFDYWGQGTLVTVSSASTKGPSVFPLAPSSKSTSGGTAALGCLVKDYFPEPVTVSWNSGALTSGVHTFPAVLQSSGLYSLSSVVTVPSSSLGTQTYICNVNHKPSNTKVDKKVEPKSCDKTHTCPPCPAPEAAGGPSVFLFPPKPKDTLMISRTPEVTCVVVSVSHEDPEVKFNWYVDGVEVHNAKTKPREEQYNSTYRVVSVLTVLHQDWLNGKEYKCKVSNKALPAPIEKTISKAKGQPREPQVYTLPPSREEMTKNQVSLSCAVKGFYPSDIAVEWESNGQPENNYKTTPPVLDSDGSFFLVSKLTVDKSRWQQGNVFSCSVMHEALHNRFTQKSLSLSPGK
# light: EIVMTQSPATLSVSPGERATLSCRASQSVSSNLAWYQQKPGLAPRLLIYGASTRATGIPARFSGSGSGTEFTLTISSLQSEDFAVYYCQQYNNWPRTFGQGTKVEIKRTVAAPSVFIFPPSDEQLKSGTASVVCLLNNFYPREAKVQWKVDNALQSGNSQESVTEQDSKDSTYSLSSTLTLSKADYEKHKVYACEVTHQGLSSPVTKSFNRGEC
# notes: HC2 carries the NPP3B56 Fab and the hole T366S, L368A, Y407V; Fc with L234A, L235A, D265S; The CPPC linker cysteines form disulfides with engineered Cys at L42 and H105 (Chothia); also called NPP3B56×CD3B2030-N106A; ENPP3×CD3 (NPP3B815)
# Experiments:
# human ENPP3 on cells [1] = target: T1, human ENPP3 on cells; experiment: cell-based or functional assay
# human CD3 on T cells [2] = target: T3, human CD3 on T cells (human, UniProt P07766 23-207); experiment: flow cytometry on human T cells, donor 888668965
# T3 construct: on T cells it stands in the TCR-CD3 complex; also called human T cells; T cells isolated from healthy human donors
# human CD3 on T cells [3] = target: T3, human CD3 on T cells; experiment: flow cytometry on human T cells, donor 110040278
# human CD3 on T cells [4] = target: T3, human CD3 on T cells; experiment: flow cytometry on human T cells, average of 6 donors
# human ENPP3 on cells [5] = target: T1, human ENPP3 on cells; experiment: flow cytometry on A704 cells
# [6] = target: T2, cynomolgus monkey ENPP3 on HepG2-KO …; experiment: cell-based or functional assay
# T3 sequence (P07766 23-207 limits assumed): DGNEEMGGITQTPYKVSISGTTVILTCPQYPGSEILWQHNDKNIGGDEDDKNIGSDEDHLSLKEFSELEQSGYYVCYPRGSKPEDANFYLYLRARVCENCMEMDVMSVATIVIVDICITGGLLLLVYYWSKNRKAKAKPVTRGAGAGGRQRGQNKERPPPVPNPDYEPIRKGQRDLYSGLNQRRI
binder,measurement,setting,value
B1,killing EC50; A704; PBMC donor 110040278; E:T 3:1,human ENPP3 on cells [1],52 pM
same,killing EC50; A704; PBMC donor 110040278; E:T 5:1,human ENPP3 on cells [1],28 pM
same,killing EC50; A704; PBMC donor 110042496; E:T 3:1,human ENPP3 on cells [1],97 pM
same,killing EC50; A704; PBMC donor 110042496; E:T 5:1,human ENPP3 on cells [1],61 pM
same,killing EC50; A704; PBMC donor 110042593; E:T 1:1,human ENPP3 on cells [1],124 pM
same,killing EC50; A704; PBMC donor 110042593; E:T 3:1,human ENPP3 on cells [1],39 pM
same,killing EC50; A704; PBMC donor 110042593; E:T 5:1,human ENPP3 on cells [1],15 pM
same,killing EC50; A704; PBMC donor 110044049; E:T 1:1,human ENPP3 on cells [1],131 pM
same,killing EC50; A704; PBMC donor 110044049; E:T 3:1,human ENPP3 on cells [1],52 pM
same,killing EC50; A704; PBMC donor 110044049; E:T 5:1,human ENPP3 on cells [1],16 pM
same,killing EC50; A704; PBMC donor 110048457; E:T 3:1,human ENPP3 on cells [1],46 pM
same,killing EC50; A704; PBMC donor 110048457; E:T 5:1,human ENPP3 on cells [1],13 pM
same,killing EC50; A704; PBMC donor 888668965; E:T 1:1,human ENPP3 on cells [1],107 pM
same,killing EC50; A704; PBMC donor 888668965; E:T 3:1,human ENPP3 on cells [1],36 pM
same,killing EC50; A704; PBMC donor 888668965; E:T 5:1,human ENPP3 on cells [1],15 pM
same,killing EC50; VMRCRCW; PBMC donor 110040278; E:T 5:1,human ENPP3 on cells [1],33 pM
same,killing EC50; VMRCRCW; PBMC donor 110042496; E:T 5:1,human ENPP3 on cells [1],65 pM
same,killing EC50; VMRCRCW; PBMC donor 110042593; E:T 5:1,human ENPP3 on cells [1],33 pM
same,killing EC50; VMRCRCW; PBMC donor 110044049; E:T 5:1,human ENPP3 on cells [1],51 pM
same,killing EC50; VMRCRCW; PBMC donor 110048457; E:T 5:1,human ENPP3 on cells [1],63 pM
same,killing EC50; VMRCRCW; PBMC donor 888668965; E:T 5:1,human ENPP3 on cells [1],62 pM
same,EC50,human CD3 on T cells [2],197000 pM
same,EC50,human CD3 on T cells [3],253000 pM
same,EC50,human CD3 on T cells [4],177000 pM
same,EC50,human ENPP3 on cells [5],1010 pM
same,Cytotox. EC50; HepG2-KO cyno ENPP3-OE; human T cells; E:T 3:1,[6],79 pM
same,T-cell activation EC50; HepG2-KO cyno ENPP3-OE; human T cells; E:T 3:1,[6],23 pM
